Experimental data published in patent US20260158095A1, “PLANT EXTRACT AND USE THEREOF IN TOPICAL COMPOSITIONS” (TERM HELVET SA, priority 2021, published 2026).

Tested on: human keratinocyte culture
Assay: Filopodia formation in human keratinocyte culture (rhodamine-phalloidin staining, fluorescence microscopy)
Type: cell-based
Conditions: human keratinocytes
Protocol: Table 2 indicates the intensity of filopodia formation (number and surface area) in vitro in four keratinocyte cultures under four operating conditions, after treatment with: • a solvent, • HB-EGF (heparin-binding epidermal growth factor), • Picrorhiza kurroa extract obtained without hydrolysis, and • Picrorhiza kurroa extract obtained following hydrolysis.
The test is performed using a human keratinocyte culture divided into four batches. Cells are treated for 1 h with the products to be tested, fixed in 4% formalin, and then stained with rhodamine-conjugated α-phalloidin (α-phalloidin has high affinity for actin filaments, and its conjugation to rhodamine makes actin filaments fluorescent [540 nm; 565 nm]). The cell morphology is then analyzed under a fluorescence microscope (FIG. 2). • A, solvent, negative (no stimulation); • B, HB-EGF (heparin-binding epidermal growth factor), reference epidermal trophic factor, 5 ng/ml; • C, Picrorhiza kurroa extract obtained without hydrolysis, 100 μg/ml; • D, Picrorhiza kurroa extract obtained following hydrolysis, 100 μg/ml.

B1: HB-EGF: heparin-binding epidermal growth factor, reference epidermal trophic factor, positive control (protein, UniProt Q99075 63-148, looked up)
Heparin-binding EGF-like …: DLQEADLDLLRVTLSSKPQALATPNKEEHGKRKKKGKGLGKKRDPCLRKYKDFCIHGECKYVKELRAPSCICHPGYHGERCHGLSL
- Visual evaluation of the production of filopodia (scale from 0 to 3) (5 ng/ml, 1 h treatment): 3
- Intensity of filopodia formation (effect in words) (HB-EGF 5 ng/ml, extracts 100 μg/ml, 1 h): intense effect
